From patent publication US20110212108A1, “NEUREGULIN/ERBB SIGNALING AND INTEGRIN” (THE REGENTS OF THE UNIVERSITY OF CALIFORNIA, priority 2008, published 2011)
Substitutions are numbered along the chain they refer to. Entries after “also recorded” stand apart in the source; their conditions may differ. Values belong to the molecule of their own block, whether it stands above or below them. Ends that are not written are not given here. GST = glutathione S-transferase

Key:
integrin αvβ3 = molecular target: T1, integrin αvβ3 (Homo sapiens, UniProt P05106+P06756); experiment: ELISA-type binding of soluble recombinant integrin αvβ3 to immobilized NRG1 fragments; conditions: soluble αvβ3, 1 mM Mn2+, room temperature
T1 construct: Soluble recombinant integrin αvβ3 (5 μg/ml) was added to the wells; made in house
T1 sequence (P06756 31-992 limits assumed): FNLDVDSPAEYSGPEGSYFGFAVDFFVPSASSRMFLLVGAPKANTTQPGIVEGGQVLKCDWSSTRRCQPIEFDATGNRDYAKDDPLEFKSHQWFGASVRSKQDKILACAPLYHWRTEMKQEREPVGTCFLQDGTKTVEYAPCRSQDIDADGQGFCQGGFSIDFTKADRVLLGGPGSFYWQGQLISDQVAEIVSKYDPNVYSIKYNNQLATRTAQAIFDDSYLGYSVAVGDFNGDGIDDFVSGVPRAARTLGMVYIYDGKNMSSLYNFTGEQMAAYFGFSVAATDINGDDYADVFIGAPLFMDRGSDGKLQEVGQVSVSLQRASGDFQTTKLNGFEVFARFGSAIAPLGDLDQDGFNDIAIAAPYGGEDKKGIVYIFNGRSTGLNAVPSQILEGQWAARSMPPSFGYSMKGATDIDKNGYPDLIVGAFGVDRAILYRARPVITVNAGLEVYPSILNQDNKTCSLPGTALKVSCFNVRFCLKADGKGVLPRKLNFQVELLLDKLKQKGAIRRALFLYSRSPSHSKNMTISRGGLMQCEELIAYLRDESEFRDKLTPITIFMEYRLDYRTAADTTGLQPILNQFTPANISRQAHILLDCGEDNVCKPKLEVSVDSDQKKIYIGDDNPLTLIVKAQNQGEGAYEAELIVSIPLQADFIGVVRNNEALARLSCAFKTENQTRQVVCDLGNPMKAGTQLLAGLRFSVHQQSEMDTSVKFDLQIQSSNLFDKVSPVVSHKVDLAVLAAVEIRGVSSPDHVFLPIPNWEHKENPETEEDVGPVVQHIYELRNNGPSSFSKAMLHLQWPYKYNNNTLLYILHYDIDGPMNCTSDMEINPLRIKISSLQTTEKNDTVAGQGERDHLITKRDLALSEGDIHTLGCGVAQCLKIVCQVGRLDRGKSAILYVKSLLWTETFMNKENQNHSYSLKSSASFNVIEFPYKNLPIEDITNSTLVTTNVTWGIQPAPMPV
T1 sequence (P05106 27-718 limits assumed): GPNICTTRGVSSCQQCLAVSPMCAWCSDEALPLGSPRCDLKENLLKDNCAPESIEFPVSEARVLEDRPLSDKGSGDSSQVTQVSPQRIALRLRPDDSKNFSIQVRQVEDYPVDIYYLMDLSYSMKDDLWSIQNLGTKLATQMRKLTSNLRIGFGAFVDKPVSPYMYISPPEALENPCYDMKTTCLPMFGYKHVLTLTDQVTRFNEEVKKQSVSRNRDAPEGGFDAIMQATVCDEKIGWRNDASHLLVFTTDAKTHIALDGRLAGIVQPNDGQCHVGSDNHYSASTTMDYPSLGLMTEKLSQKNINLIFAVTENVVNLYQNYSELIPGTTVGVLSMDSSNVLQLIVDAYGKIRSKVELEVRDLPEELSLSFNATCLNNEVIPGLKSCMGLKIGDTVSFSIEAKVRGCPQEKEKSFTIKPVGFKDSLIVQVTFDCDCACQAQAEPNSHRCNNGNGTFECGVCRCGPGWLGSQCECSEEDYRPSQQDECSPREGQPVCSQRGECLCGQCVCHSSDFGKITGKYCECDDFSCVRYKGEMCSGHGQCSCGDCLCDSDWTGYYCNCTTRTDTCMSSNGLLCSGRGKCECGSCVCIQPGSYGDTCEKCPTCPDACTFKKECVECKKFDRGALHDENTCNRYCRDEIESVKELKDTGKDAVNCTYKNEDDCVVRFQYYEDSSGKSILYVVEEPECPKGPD
Description: FIG. 1. […] The isolated EGF-like domain of Wt NRG1 was immobilized to wells of 96-well titer plates. The concentrations of the coating solution are shown. Soluble recombinant integrin αvβ3 (5 μg/ml) was added to the wells in the presence of 1 mM Mn^2+ and incubated for 2 h at room temperature. After washing the wells bound αvβ3 was determined by using anti-β3 antibody and HRP-conjugated anti-mouse IgG. The data is shown as means+/−SEM of triplicate experiments. FIG. 7. […] Wt GST-NRG1 (175-222) and the 2KE mutant of GST-NRG1 (175-222) were immobilized to wells of 96-well titer plates. The concentrations of the coating solution are shown. Soluble recombinant integrin αvβ3 (5 μg/ml) was added to the wells in the presence of 1 mM Mn^2+ and incubated for 2 h at room temperature. After washing, the wells bound αvβ3 was determined by using anti-β3 antibody and HRP-conjugated anti-mouse IgG. The data are shown as means+/−SD of triplicate experiments. […] Direct αvβ3-NRG (175-222) interaction: It has been well established that the EGF-like domain of the NRGs is sufficient to specifically activate ErbB receptors and to induce cellular responses in culture. To generate GST-NRG1 EGF-like domain fusion protein, the cDNA fragment of the EGF-like domain of NRG1 was amplified by PCR and subcloned into PGEX-2T vector to generate GST-NRG1 EGF-like domain fusion protein (designated GST-NRG1 (175-222)) in E. coli BL21. The fusion protein was purified in glutathione-affinity chromatography. The affinity resin was extensively washed with 1% Triton X-114 to remove endotoxin before eluting the protein. It was tested, in the present invention, whether soluble recombinant integrin αvβ3 binds to GST-NRG1 (175-222) that is immobilized to plastic wells (ELISA-type assay). […] Cell adhesion and soluble integrin binding assays were performed as described previously (Mori, et al., 2008). NRG1α (175-241) was immobilized to wells of 96-well microtiter plate overnight at 4° C. in 0.1 M carbonate buffer, pH 2 9.4. Remaining protein binding sites were blocked by incubating with 200 μl of 0.1% BSA in PBS for 60 min at room temperature. Wells were then incubated with soluble integrin αvβ3 in 50 μl in Hepes-Tyrode's buffer supplemented with 1 mM Mn2+ at room temperature for 60 min. After rinsing the wells with the same buffer, bound integrins were determined by horseradish peroxidase (HRP)-conjugated anti-His tag mouse IgG and substrate 3,3′,5,5′-tetramethylbenzidine of HRP.

[1] = molecular target: T2, Recombinant human ErbB3 Fc chimera (R&D Systems) (human, UniProt P21860 20-643); experiment: ELISA-type assay, ErbB3 Fc coated at 1 µg/ml, bound GST fusion detected with anti-GST HRP
T2 construct: Bought from R&D Systems; also called recombinant soluble ErbB3 Fc fusion protein; recombinant soluble ErbB3; Fc part of the bought chimera not given; not described
T2 sequence (P21860 20-643, change not shown): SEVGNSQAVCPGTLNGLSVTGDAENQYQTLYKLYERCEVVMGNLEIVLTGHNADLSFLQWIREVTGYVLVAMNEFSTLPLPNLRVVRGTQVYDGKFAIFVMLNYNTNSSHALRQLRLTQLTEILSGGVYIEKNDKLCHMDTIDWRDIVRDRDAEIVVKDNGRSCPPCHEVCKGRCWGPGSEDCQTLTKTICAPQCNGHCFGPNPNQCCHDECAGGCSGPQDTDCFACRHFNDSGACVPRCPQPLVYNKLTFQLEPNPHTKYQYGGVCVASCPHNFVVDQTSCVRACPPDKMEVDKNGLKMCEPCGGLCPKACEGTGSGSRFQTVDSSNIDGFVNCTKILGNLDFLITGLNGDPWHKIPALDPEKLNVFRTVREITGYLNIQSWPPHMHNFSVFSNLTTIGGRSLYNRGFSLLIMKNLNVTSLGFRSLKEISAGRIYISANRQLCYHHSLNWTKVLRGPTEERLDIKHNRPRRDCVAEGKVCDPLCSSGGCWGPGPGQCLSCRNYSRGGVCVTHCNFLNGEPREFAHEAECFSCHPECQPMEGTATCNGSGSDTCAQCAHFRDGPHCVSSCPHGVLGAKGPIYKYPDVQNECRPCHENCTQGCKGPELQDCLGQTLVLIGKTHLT

[2] = molecular target: T3, human integrin αvβ3 on K562 erythroleukemic cells (αvβ3-K562) (human, UniProt P06756 31-1048; P05106 27-788); experiment: cell adhesion to immobilised NRG1α
T3 construct: whole, on cells; also called K562 cells that express human αvβ3
T3 sequence (P06756 31-1048, chain 1 of 2): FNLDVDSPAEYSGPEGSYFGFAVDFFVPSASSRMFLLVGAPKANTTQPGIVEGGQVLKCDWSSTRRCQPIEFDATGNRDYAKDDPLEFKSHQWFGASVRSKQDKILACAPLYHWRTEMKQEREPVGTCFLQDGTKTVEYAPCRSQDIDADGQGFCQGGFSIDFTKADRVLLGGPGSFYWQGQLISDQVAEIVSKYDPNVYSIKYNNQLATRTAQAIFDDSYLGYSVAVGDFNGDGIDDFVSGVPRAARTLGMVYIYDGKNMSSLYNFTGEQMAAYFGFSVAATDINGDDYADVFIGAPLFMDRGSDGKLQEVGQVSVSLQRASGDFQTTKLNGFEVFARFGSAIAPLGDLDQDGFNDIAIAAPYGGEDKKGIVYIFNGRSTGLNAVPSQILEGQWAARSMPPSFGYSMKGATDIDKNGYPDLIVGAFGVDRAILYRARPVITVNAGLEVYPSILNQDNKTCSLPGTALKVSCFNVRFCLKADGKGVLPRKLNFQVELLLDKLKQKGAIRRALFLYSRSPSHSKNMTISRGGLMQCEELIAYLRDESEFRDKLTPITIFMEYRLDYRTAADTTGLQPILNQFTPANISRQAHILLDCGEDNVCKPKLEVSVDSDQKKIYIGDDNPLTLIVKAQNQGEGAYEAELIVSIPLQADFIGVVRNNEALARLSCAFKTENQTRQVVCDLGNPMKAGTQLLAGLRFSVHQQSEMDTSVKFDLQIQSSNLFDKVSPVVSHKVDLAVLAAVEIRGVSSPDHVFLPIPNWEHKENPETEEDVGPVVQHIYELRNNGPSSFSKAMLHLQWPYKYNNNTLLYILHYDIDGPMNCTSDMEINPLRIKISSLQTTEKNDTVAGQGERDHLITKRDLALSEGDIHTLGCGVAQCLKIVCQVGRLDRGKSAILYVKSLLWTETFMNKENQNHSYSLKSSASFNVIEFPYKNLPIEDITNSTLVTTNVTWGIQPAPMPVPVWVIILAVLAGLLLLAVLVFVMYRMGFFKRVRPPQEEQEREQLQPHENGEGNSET
T3 sequence (P05106 27-788, chain 2 of 2): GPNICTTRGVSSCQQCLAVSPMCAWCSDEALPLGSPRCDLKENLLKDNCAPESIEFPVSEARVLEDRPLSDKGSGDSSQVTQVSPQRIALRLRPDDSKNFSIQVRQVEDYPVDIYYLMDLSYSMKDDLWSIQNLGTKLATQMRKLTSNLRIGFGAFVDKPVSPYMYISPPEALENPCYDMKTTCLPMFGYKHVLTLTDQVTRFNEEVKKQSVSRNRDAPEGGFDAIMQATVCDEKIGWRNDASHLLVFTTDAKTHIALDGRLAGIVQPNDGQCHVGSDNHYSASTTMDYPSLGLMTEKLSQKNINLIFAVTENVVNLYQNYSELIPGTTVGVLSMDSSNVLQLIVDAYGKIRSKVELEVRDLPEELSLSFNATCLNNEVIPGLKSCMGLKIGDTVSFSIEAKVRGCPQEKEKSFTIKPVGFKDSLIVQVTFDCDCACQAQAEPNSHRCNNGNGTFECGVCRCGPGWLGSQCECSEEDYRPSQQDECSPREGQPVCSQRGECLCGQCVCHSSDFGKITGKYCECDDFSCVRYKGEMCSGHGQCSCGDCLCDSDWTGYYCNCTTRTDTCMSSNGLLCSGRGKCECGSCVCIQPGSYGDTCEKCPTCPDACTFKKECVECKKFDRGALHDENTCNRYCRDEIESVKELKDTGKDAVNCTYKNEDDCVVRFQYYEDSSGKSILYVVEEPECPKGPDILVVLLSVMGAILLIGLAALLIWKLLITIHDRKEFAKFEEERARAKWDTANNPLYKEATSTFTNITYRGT

[3] = molecular target: T3, human integrin αvβ3 on K562 …; experiment: cell adhesion of αvβ3-K562 cells
[4] = molecular target: T3, human integrin αvβ3 on K562 …; experiment: cell adhesion of αvβ3-K562 cells to immobilised 3KE (175-222)
[5] = molecular target: T4, human integrin α6β4 on CHO cells (α6β4-CHO) (human, UniProt P23229 24-1130; P16144 28-1822); experiment: cell adhesion of α6β4-CHO cells to immobilised 3KE (175-222)
T4 construct: whole, on cells; also called keratinocyte integrin α6β4

[6] = tested on: mammary intraepithelial neoplasia-outgrowth (MIN-O); experiment: Outgrowth of precancer (MIN-O) in FVB mice; type: in vivo; conditions: 200 ng/day/mouse intraperitoneally, 5 days a week for 4 weeks; P=0.0355
Description: FIG. 16. Inhibitory effect of daily intraperitoneal injection of 3KE (175-222) on the outgrowth of precancer (MIN-O) in FVB mice. MIN-O was transplanted into fat pads of FVB mice (two per mice) and 3KE (175-222) (200 ng/mouse/day) was injected 5 days a week for 4 weeks starting day 0. After 28 days, mice were sacrificed and the dimensions of tumors were measured. Since MIN-O grows as a thin layer, the two-dimensional size was calculated and the thickness was ignored. P=0.0355 by ANOVA between control and 3KE (175-222).
To study the effect of 3KE (175-222) on the premalignant cancer, transplantable mammary intraepithelial neoplasia-outgrowth (MIN-O) tissue lines, which were derived from hyperplastic mammary lesions in young Tg(MMTV-PyV-mT) females (Maglione et al. 2004), were used. The resulting lesions mimic the biological behavior, molecular biology, and histopathology of human ductal carcinoma in situ (Maglione et al. 2004). One mm^3 pieces of the 8w-BMINO tissues (Maglione et al. 2004) were transplanted to gland-cleared no. 4 mammary fat pads of 3-week-old FVB females bilaterally.

Molecule: 2KE (175-222): NRG1 (175-222) with Lys185/Lys187 mutated to Glu; GTSHLVKCAEEEETFCVNGGECFMVKDLSNPSRYLCKCQPGFTGARCT (SEQ ID NO:12) (integrin-binding site within human neuregulin, 2KE mutant, short version)
- Binding of soluble recombinant integrin αvβ3 to the immobilized protein (integrin αvβ3): much lower affinity to αvβ3; also recorded: did not

- binding result [1]: binds
- binding result [2]: binds
B1: GST-NRG1α (175-241), wild type (EGF-like motif and α domain of human neuregulin 1α as GST fusion protein) (ligand)
chain: GTSHLVKCAEKEKTFCVNGGECFMVKDLSNPSRYLCKCQPGFTGARCTENVPMKVQNQEKAEELYQK
notes: not shown: glutathione S-transferase (GST) tag as encoded by the pGEX-2T vector, N-terminal

- binding result [1]: binds
B2: 3KE (175-241) mutant of NRG1α (Lys181/Lys185/Lys187 to Glu), GST fusion protein (ligand, not shown: a dimerising Fc or GST; large carriers; small tags and cut ends)
chain: B1 chain with K7E, K11E, K13E

- binding result [3]: binds
B3: GST-NRG1 (175-222), wild type EGF-like domain of human neuregulin 1 as GST fusion protein (ligand)
chain: {GST}-GTSHLVKCAEKEKTFCVNGGECFMVKDLSNPSRYLCKCQPGFTGARCT
modifications: not fully specified; cysteine pairing not given here
notes: Made in E. coli as GST fusion (pGEX-2T); not shown: glutathione S-transferase (GST) tag as encoded by the pGEX-2T vector, N-terminal

- binding result [4]: no binding
- binding result [5]: no binding
B4: 3KE (175-222) mutant of NRG1 (Lys181/Lys185/Lys187 to Glu), GST fusion protein (ligand, not shown: a dimerising Fc or GST; large carriers; small tags and cut ends)
chain: GTSHLVECAEEEETFCVNGGECFMVKDLSNPSRYLCKCQPGFTGARCT

B5: γC399tr: Control protein in the MIN-O experiment (protein)
chain: KDCQDIANKGAKQSGLYFIKPLKANQQFLVYCEIDGSGNGWTVFQKRLDGSVDFKKNWIQYKEGFGHLSPTGTTEFWLGNEKIHLISTQSAIPYALRVELEDWNGRTSTADYAMFKVGPEADKYRLTYAYFAGGDAGDAFDGFDFGDDPSDKFFTSHNGMQFSTWDNDNDKFEGNCAEQDGSGWWMNKCHAGHLNGVYYQGGTYSKASTPNGYDNGIIWATWKTRWYSMKKTTMKIIPFNRLTIGEGQQ
- Outgrowth of MIN-O in FVB mice [6]: did not affect the outgrowth of MIN-O
